Source: paper PMC6472409, “Dishevelled-3 conformation dynamics analyzed by FRET-based biosensors reveals a key role of casein kinase 1” (Nature Communications, 2019)
Where a SMILES comes first, the peptide text is derived from it. [ ]: non-standard residue; d: D form. The star is where a group is joined. FITC = O=C1OC2(c3ccc(O)cc3Oc3cc(O)ccc32)c2ccc(NC(=S)*)cc21; pS = N[C@@H](COP(=O)(O)O)C(=O)O; Ahx = NCCCCCC(=O)O

Tests used:
[1] = molecular target: recombinant His-tagged human CK1ε (Homo sapiens, UniProt P49674); assay: Fluorescence anisotropy (FA) binding of FITC-labeled peptides; conditions: FITC-Ahx peptide 50 nM, 30 min, 37 °C; n=3; read-out: affinity for recombinant CK1ε (fluorescence anisotropy)
Excerpt: The peptides used in the fluorescent polarization (FA) binding assays were synthesized at Pepscan B.V. (Lelystad, Netherlands). The sequences of these peptides (indicated in Supplementary Fig. 4a) were amidated at their C-termini, and their N-termini were acylated with 6-aminocaproic acid (Ahx) modified with fluorescein isothiocyanate (FITC). The peptides used in the NMR/SPR studies were purchased from KareBay Biochem, Inc. (New Jersey, USA). The peptides for the NMR/SPR studies contained no terminal modifications.
Data were recorded at 37 °C using Tecan Infinite F500 (Tecan Systems, Germany). FITC-labeled peptides were dissolved in DMSO and added to 384-well plates (Corning) to a total volume of 20 μl (peptide final concentration was 50 nM). Incubation with recombinant His-tagged human CK1ε (MyBioSource, #MBS964562) was performed for 30 min at 37 °C. Then, fluorescence intensities were collected simultaneously by detection at 535/590 and 485/535 nm excitation/emission wavelengths, respectively, followed by adjustment to the blank controls.

[2] = molecular target: FITC-labeled peptide corresponding to the DVL3 FRMA region, non-phosphorylated (fluorescence anisotropy) (human); assay: fluorescence polarisation; fluorescence anisotropy, 50 nM FITC-labeled peptide with recombinant His-tagged human CK1ε, 30 min at 37 °C, 384-well plates
[3] = molecular target: FITC-labeled peptide corresponding to the DVL3 RGPR region, non-phosphorylated (fluorescence anisotropy) (human); assay: as above
[4] = molecular target: FITC-labeled peptide corresponding to the DVL3 RGCF region, non-phosphorylated (fluorescence anisotropy) (human); assay: as above
[5] = molecular target: T1, PDZ domain of human DVL2 (aa 265–361), phosphorylation-mimicking variant S286E + S329E (human, UniProt O14641 265-361, S286E | S329E); assay: NMR titration; 1H,15N HSQC series, 100 μM 15N-labeled PDZ with increasing amounts of peptide; 20 mM HEPES pH 6.8, 50 mM KCl; apparent KD from three fast-exchange cross-peaks; conditions: both partners purified
T1 construct: Dishevelled-2, human, PDZ domain aa 265-361 with S286E and S329E; 15N-labeled for NMR; also called S286E/S329E PDZ; PDZ phosphomimicking variant; source: E. coli BL21 (DE3), purified (Ni-NTA, TEV cleavage, ion exchange, size exclusion); not shown: His6, N-terminal, cleaved; lipoyl domain, N-terminal, cleaved
T1 sequence (looked up): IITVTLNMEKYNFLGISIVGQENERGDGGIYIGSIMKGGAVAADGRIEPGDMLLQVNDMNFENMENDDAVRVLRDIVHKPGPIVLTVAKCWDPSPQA

[6] = molecular target: T2, PDZ domain of human DVL2 (aa 265–361), phosphorylation-mimicking variant S286E + S329E (human, UniProt O14641 265-361, S286E | S329E); assay: NMR
T2 sequence: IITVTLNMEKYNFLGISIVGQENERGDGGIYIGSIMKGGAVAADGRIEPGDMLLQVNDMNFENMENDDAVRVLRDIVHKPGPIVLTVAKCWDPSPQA

[7] = molecular target: T3, PDZ domain of human DVL2 wild type (aa 265–361) (human, UniProt O14641 265-361); assay: NMR
T3 chain: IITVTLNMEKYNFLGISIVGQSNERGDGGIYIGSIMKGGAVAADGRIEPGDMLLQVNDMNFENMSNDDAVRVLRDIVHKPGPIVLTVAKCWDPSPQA

[8] = molecular target: T4, PDZ domain of human DVL2 wild type (aa 265–361) (human, UniProt O14641 265-361); assay: SPR; Biacore T200, PDZ immobilized on CM5 chip by amino coupling, peptide injected at increasing concentrations to steady state; one-site equilibrium fit, apparent KD; conditions: both partners purified
T4 construct: Dishevelled-2, human, PDZ domain aa 265-361; 15N-labeled (13C/15N for assignment) for NMR; S286 and S329 correspond to S268 and S311 of human DVL3; also called DVL2 PDZ wild type; PDZ wt; source: E. coli BL21 (DE3), purified (Ni-NTA, TEV cleavage, ion exchange, size exclusion); not shown: His6, N-terminal, cleaved; lipoyl domain, N-terminal, cleaved
T4 sequence (looked up): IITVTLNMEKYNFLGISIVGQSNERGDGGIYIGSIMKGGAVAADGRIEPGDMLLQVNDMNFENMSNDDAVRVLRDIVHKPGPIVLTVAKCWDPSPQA

[9] = molecular target: T1, PDZ domain of human DVL2 (aa 265–361), …; assay: as above; conditions: both partners purified

Sequence of recombinant His-tagged human CK1ε (P49674 whole entry): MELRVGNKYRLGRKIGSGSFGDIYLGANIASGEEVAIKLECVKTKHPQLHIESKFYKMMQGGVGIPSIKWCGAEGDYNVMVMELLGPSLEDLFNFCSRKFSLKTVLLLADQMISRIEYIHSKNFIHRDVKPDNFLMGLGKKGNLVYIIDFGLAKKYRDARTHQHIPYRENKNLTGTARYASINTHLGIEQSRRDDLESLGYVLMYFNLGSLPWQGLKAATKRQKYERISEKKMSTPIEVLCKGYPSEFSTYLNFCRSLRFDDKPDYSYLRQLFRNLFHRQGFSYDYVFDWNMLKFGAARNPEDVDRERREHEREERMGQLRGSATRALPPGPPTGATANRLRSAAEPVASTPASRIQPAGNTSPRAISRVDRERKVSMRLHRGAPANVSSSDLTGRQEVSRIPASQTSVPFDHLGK

`CSCC[C@H](NC(=O)[C@H](C)NC(=O)[C@H](CCSC)NC(=O)[C@H](CCCNC(=N)N)NC(=O)[C@H](Cc1ccccc1)NC(=O)[C@H](CO)NC(=O)[C@H](CCC(N)=O)NC(=O)[C@H](CCCNC(=N)N)NC(=O)CCCCCNC(=S)Nc1ccc2c(c1)C(=O)OC21c2ccc(O)cc2Oc2cc(O)ccc21)C(=O)NCC(=O)N[C@@H](CC(N)=O)C(N)=O` [FRMA] ({FITC-Ahx}-RQSFRMAMGN-NH2) showed a Kd [1] of ~1000 nM.

`CC(C)C[C@H](NC(=O)[C@H](CO)NC(=O)[C@H](CO)NC(=O)CCCCCNC(=S)Nc1ccc2c(c1)C(=O)OC21c2ccc(O)cc2Oc2cc(O)ccc21)C(=O)N[C@@H](CCCNC(=N)N)C(=O)NCC(=O)N1CCC[C@H]1C(=O)N[C@@H](CCCNC(=N)N)C(=O)N[C@@H](CCC(=O)O)C(=O)N[C@@H](CCCNC(=N)N)C(=O)N[C@@H](C)C(=O)N1CCC[C@H]1C(=O)N[C@@H](CO)C(=O)N[C@@H](CCC(=O)O)C(N)=O` [RGPR] ({FITC-Ahx}-SSLRGPRERAPSE-NH2) was tested, and the Kd [1] was ~1000 nM.

“recombinant His-tagged human CK1ε (MyBioSource, #MBS964562) (from UniProt P49674 1-416) (enzyme)” was tested, and the Kd [2] was 1000 nM, the Kd [3] was 1000 nM and the Kd [4] was 1000 nM.

With `CC(C)C[C@H](NC(=O)[C@@H](NC(=O)[C@H](Cc1ccccc1)NC(=O)[C@H](CS)NC(=O)CNC(=O)[C@H](CCCNC(=N)N)NC(=O)[C@@H]1CCCN1C(=O)[C@H](CO)NC(=O)[C@@H]1CCCN1C(=O)CCCCCNC(=S)Nc1ccc2c(c1)C(=O)OC21c2ccc(O)cc2Oc2cc(O)ccc21)[C@@H](C)O)C(=O)N1CCC[C@H]1C(=O)N[C@@H](CCCNC(=N)N)C(=O)N[C@@H](CO)C(=O)N[C@@H](CCC(=O)O)C(N)=O` [RGCF] ({FITC-Ahx}-PSPRGCFTLPRSE-NH2) the Kd [1] was ~1000 nM.

B1: phosphorylated (pS700) C-terminal peptide derived from DVL3 (aa 698–716) (peptide, UniProt Q92997 698-716, looked up)
peptide: H-RQ[pS]FRMAMGNPSEFFVDVM-OH
notes: Dishevelled-3, human, C-terminal aa 698-716; the last seven residues are printed as EFFVDIM; also called DVL C-terminal peptide; C-terminal DVL peptide (pS700); source: synthetic peptide, bought: KareBay Biochem
With B1 the “fold weaker affinity than PDZ wt” value [5] was 2 fold, the Kd [6] was 625000 nM and the Kd [7] was 296000 nM. The binding result [8] was “binds” and the “fold lower affinity than PDZ wt” value [9] was 2 fold.
